In one experiment the target is T1, mono-ubiquitin (UniProt P0CG47 1-76).
T1 construct: ubiquitin (the reaction product, residues 1-76); also called product ubiquitin; source: E. coli BL21(DE3)-Codon Plus; purification of the ubiquitin constructs not described
Briefly: ITC; ubiquitin samples (200–500 μM) titrated into USP11 samples (20–30 μM); 50 mM Tris-Cl, pH 7.5, 150 mM NaCl, 1% (v/v) glycerol; 25 °C; one-site binding model. The conditions noted are these: both partners purified. (In ITC the heat of successive injections is recorded.)

Another experiment has as its target T2, linear diubiquitin (UniProt P0CG47 1-76; P0CG47 1-76).
T2 construct: ubiquitin, distal moiety (residues 1-76); ubiquitin, proximal moiety, its Met1 (Met77 of the chain) joined by a peptide bond to Gly76 of the distal moiety; source: E. coli BL21(DE3)-Codon Plus; purification of the ubiquitin constructs not described
Described as above. The conditions noted are these: both partners purified.

Experimental findings from article PMC10637973 (The Journal of Biological Chemistry, 2023) are described below.

Changes are numbered by the printed parent chain. Numbers in names are those of the source.

What is called Kd is the equilibrium constant for the complex coming apart. Low values mean a tighter complex, high ones a looser complex.

B1: USP11-D1D2 (enzyme, human)
chain: MSEEDEDFKGQPGICGLTNLGNTCFMNSALQCLSNVPQLTEYFLNNCYLEELNFRNPLGMKGEIAEAYADLVKQAWSGHHRSIVPHVFKNKVGHFASQFLGYQQHDSQELLSFLLDGLHEDLNRVKKKEYVELCDAAGRPDQEVAQEAWQNHKRRNDSVIVDTFHGLFKSTLVCPDCGNVSVTFDPFCYLSVPLPASTSKPVRLQECIELFTTVETLEKENPWYCPSCKQHQLATKKLDLWMLPEILIIHLKRFSYTKFSREKLDTLVEFPIRDLDFSEFVIQPQNESNPELYKYDLIAVSNHYGGMRDGHYTTFACNKDSGQWHYFDDNSVSPVNENQIESKAAYVLFYQRQDVARRLL
notes: USP11, human, catalytic subdomain D1, residues Met295-Pro489; numbering of UniProt P51784; linker that replaces the insertion between subdomains D1 and D2; USP11, human, catalytic subdomain D2, residues Pro778-Leu937; also called USP11 catalytic core; USP11 catalytic domain; source: E. coli BL21(DE3)-Codon Plus, purified (Ni2+ HiTrap chelating column, SEC Superdex 200); not shown: His tag (from …)
For the molecule B1, the Kd with mono-ubiquitin was approximately 3.5 µM.

B2: USP11-D1D2 H399Q (enzyme, human)
chain: B1 chain with H105Q
notes: USP11, human, catalytic subdomain D1, residues Met295-Pro489; numbering of UniProt P51784; linker that replaces the insertion between subdomains D1 and D2; USP11, human, catalytic subdomain D2, residues Pro778-Leu937; source: E. coli BL21(DE3)-Codon Plus, purified (Ni2+ HiTrap chelating column, SEC Superdex 200); not shown: His tag (from the Ni2+ chelating column)
Turning to B2, the Kd with mono-ubiquitin was approximately 2 µM.

B3: USP11-D1D2 C318S/D886G (enzyme, human)
chain: B1 chain with C24S, D309G
notes: USP11, human, catalytic subdomain D1, residues Met295-Pro489; numbering of UniProt P51784; linker that replaces the insertion between subdomains D1 and D2; USP11, human, catalytic subdomain D2, residues Pro778-Leu937; Made from the USP11-D1D2 C318S template; source: E. coli BL21(DE3)-Codon Plus, purified (Ni2+ HiTrap chelating column, SEC Superdex 200); not shown: His tag (from the Ni2+ chelating …)
Regarding B3, the binding result in the experiment with linear diubiquitin is recorded as “binds”.

B4: USP11-D1D2 R885G (enzyme, human)
chain: B1 chain with R308G
notes: as for B2
In the experiment with mono-ubiquitin, B4 displayed a Kd of 1.1 µM.
